Starred links: 1 amine or outer side, 2 acyl side, 3 side chain; linkers in the order of their positions; H or OH if unused. Positions of bridges follow the written chain, without caps; N, C: chain ends. Non-standard residues stand in square brackets, D forms with d. Primed or numbered codes have the meaning given here. *: point of attachment. Ttds = 1,13-diamino-4,7,10-trioxatridecan-succinamic acid spacer, NCCCOCCOCCOCCCNC(=O)CCC(=O)*; APAc″ = 2-(4-(amino)piperidin-1-yl)acetic acid, NC1CCN(CC(=O)*)CC1; DOTA = O=C(O)CN1CCN(CC(=O)O)CCN(CC(=O)*)CCN(CC(=O)O)CC1; Ttds(3) = NCCCOCCOCCOCCCNC(=O)CCC(=O)*; mXylylene = c1cc(C[*:1])cc(C[*:2])c1; Aic = NC1(C(=O)O)Cc2ccccc2C1; Pen = CC(C)(S)[C@H](N)C(=O)O; 4Amb = NCc1ccc(C(=O)O)cc1; dPip = O=C(O)[C@H]1CCCCN1; Ac6c = NC1(C(=O)O)CCCCC1; Nle = CCCC[C@H](N)C(=O)O; APAc = not defined here; Thp = NC1(C(=O)O)CCOCC1; AEEA = NCCOCCOCC(=O)O; Nlys = NCCCCNCC(=O)O
B1: 3BP-3562 (peptide)
peptide: Ac-VYCE[Nlys](DOTA)DWLTWAC-NH2
modifications: linker 3-12 via mXylylene
notes: also called Ac-Val-Tyr-[Cys(3MeBn)-Glu-Nlys(DOTA)-Asp-Trp-Leu-Thr-Trp-Ala-Cys]-NH2
B2: 3BP-3870 (peptide)
peptide: {DOTA-Ttds(3)}-[Nle]YCE[dP]DWLTWSC-NH2
modifications: linker 3-12 via mXylylene
notes: also called DOTA-Ttds-Nle-Tyr-[Cys(3MeBn)-Glu-pro-Asp-Trp-Leu-Thr-Trp-Ser-Cys]-NH2
B3: 3BP-3586 (peptide)
peptide: {DOTA-APAc}-VYCE[dP]DW[Aic]TWSC-NH2
modifications: linker 3-12 via mXylylene; reading uncertain
notes: also called DOTA-APAc-Val-Tyr-[Cys(3MeBn)-Glu-pro-Asp-Trp-Aic-Thr-Trp-Ser-Cys]-NH2
B4: 3BP-3867 (peptide)
peptide: {DOTA-APAc″}-YCE[dP]DWLTWSC-NH2
modifications: linker 2-11 via mXylylene
notes: also called DOTA-APAc-Tyr-[Cys(3MeBn)-Glu-pro-Asp-Trp-Leu-Thr-Trp-Ser-Cys]-NH2
B5: 3BP-3729 (peptide)
peptide: Ac-YCE[dP]DWLTWSC-NH2
modifications: linker 2-11 via 3MeBn
notes: also called Ac-Tyr-[Cys(3MeBn)-Glu-pro-Asp-Trp-Leu-Thr-Trp-Ser-Cys]-NH2
B6: 3BP-3858 (peptide)
peptide: {DOTA-APAc″}-CE[dP]DWLTWSC-NH2
modifications: linker 1-10 via mXylylene
notes: also called DOTA-APAc-[Cys(3MeBn)-Glu-pro-Asp-Trp-Leu-Thr-Trp-Ser-Cys]-NH2
B7: 3BP-3474 (peptide)
peptide: Ac-VYCE[dP]DWLTWAC[AEEA]K(DOTA)-NH2
modifications: linker 3-12 via mXylylene
SMILES: CC(=O)N[C@H](C(=O)N[C@@H](Cc1ccc(O)cc1)C(=O)N[C@H]1CSCc2cccc(c2)CSC[C@@H](C(=O)NCCOCCOCC(=O)N[C@@H](CCCCNC(=O)CN2CCN(CC(=O)O)CCN(CC(=O)O)CCN(CC(=O)O)CC2)C(N)=O)NC(=O)[C@H](C)NC(=O)[C@H](Cc2c[nH]c3ccccc23)NC(=O)[C@H]([C@@H](C)O)NC(=O)[C@H](CC(C)C)NC(=O)[C@H](Cc2c[nH]c3ccccc23)NC(=O)[C@H](CC(=O)O)NC(=O)[C@H]2CCCN2C(=O)[C@H](CCC(=O)O)NC1=O)C(C)C
notes: also called Ac-Val-Tyr-[Cys(3MeBn)-Glu-pro-Asp-Trp-Leu-Thr-Trp-Ala-Cys]-O2Oc-Lys(DOTA)-NH2
B8: 3BP-2959 (peptide)
peptide: {DOTA-Ttds}-VYCEGDWLTWQC-NH2
modifications: linker 3-12 via mXylylene
B9: 3BP-3859 (peptide)
peptide: {DOTA}-YCE[dP]DWLTWSC-NH2
modifications: linker 2-11 via mXylylene
SMILES: CC(C)C[C@@H]1NC(=O)[C@H](Cc2c[nH]c3ccccc23)NC(=O)[C@H](CC(=O)O)NC(=O)[C@H]2CCCN2C(=O)[C@H](CCC(=O)O)NC(=O)[C@@H](NC(=O)[C@H](Cc2ccc(O)cc2)NC(=O)CN2CCN(CC(=O)O)CCN(CC(=O)O)CCN(CC(=O)O)CC2)CSCc2cccc(c2)CSC[C@@H](C(N)=O)NC(=O)[C@H](CO)NC(=O)[C@H](Cc2c[nH]c3ccccc23)NC(=O)[C@H]([C@@H](C)O)NC1=O
notes: also called DOTA-Tyr-[Cys(3MeBn)-Glu-pro-Asp-Trp-Leu-Thr-Trp-Ser-Cys]-NH2
B10: 3BP-3585 (peptide)
peptide: {DOTA-APAc}-VYCE[dP]DW[Thp]TWSC-NH2
modifications: linker 3-12 via mXylylene; reading uncertain
notes: also called DOTA-APAc-Val-Tyr-[Cys(3MeBn)-Glu-pro-Asp-Trp-Thp-Thr-Trp-Ser-Cys]-NH2
B11: 3BP-3477 (peptide)
peptide: Ac-VYCE[dP]DWLTWAC[4Amb]K(DOTA)-NH2
modifications: linker 3-12 via mXylylene
SMILES: CC(=O)N[C@H](C(=O)N[C@@H](Cc1ccc(O)cc1)C(=O)N[C@H]1CSCc2cccc(c2)CSC[C@@H](C(=O)NCc2ccc(C(=O)N[C@@H](CCCCNC(=O)CN3CCN(CC(=O)O)CCN(CC(=O)O)CCN(CC(=O)O)CC3)C(N)=O)cc2)NC(=O)[C@H](C)NC(=O)[C@H](Cc2c[nH]c3ccccc23)NC(=O)[C@H]([C@@H](C)O)NC(=O)[C@H](CC(C)C)NC(=O)[C@H](Cc2c[nH]c3ccccc23)NC(=O)[C@H](CC(=O)O)NC(=O)[C@H]2CCCN2C(=O)[C@H](CCC(=O)O)NC1=O)C(C)C
notes: also called Ac-Val-Tyr-[Cys(3MeBn)-Glu-pro-Asp-Trp-Leu-Thr-Trp-Ala-Cys]-Pamb-Lys(DOTA)-NH2
B12: 3BP-3283 (peptide)
peptide: Ac-VYCE[dPip]DWLTWAC-NH2
modifications: linker 3-12 via mXylylene
SMILES: CC(=O)N[C@H](C(=O)N[C@@H](Cc1ccc(O)cc1)C(=O)N[C@H]1CSCc2cccc(c2)CSC[C@@H](C(N)=O)NC(=O)[C@H](C)NC(=O)[C@H](Cc2c[nH]c3ccccc23)NC(=O)[C@H]([C@@H](C)O)NC(=O)[C@H](CC(C)C)NC(=O)[C@H](Cc2c[nH]c3ccccc23)NC(=O)[C@H](CC(=O)O)NC(=O)[C@H]2CCCCN2C(=O)[C@H](CCC(=O)O)NC1=O)C(C)C
notes: also called Ac-Val-Tyr-[Cys(3MeBn)-Glu-pip-Asp-Trp-Leu-Thr-Trp-Ala-Cys]-NH2
B13: 3BP-3584 (peptide)
peptide: {DOTA-APAc}-VYCE[dP]DW[Ac6c]TWSC-NH2
modifications: linker 3-12 via mXylylene; reading uncertain
notes: also called DOTA-APAc-Val-Tyr-[Cys(3MeBn)-Glu-pro-Asp-Trp-Egz-Thr-Trp-Ser-Cys]-NH2
B14: 3BP-3492 (peptide)
peptide: Ac-VYCE[dP]DWLTWA[Pen]-NH2
modifications: linker 3-12 via mXylylene
SMILES: CC(=O)N[C@H](C(=O)N[C@@H](Cc1ccc(O)cc1)C(=O)N[C@H]1CSCc2cccc(c2)CSC(C)(C)[C@@H](C(N)=O)NC(=O)[C@H](C)NC(=O)[C@H](Cc2c[nH]c3ccccc23)NC(=O)[C@H]([C@@H](C)O)NC(=O)[C@H](CC(C)C)NC(=O)[C@H](Cc2c[nH]c3ccccc23)NC(=O)[C@H](CC(=O)O)NC(=O)[C@H]2CCCN2C(=O)[C@H](CCC(=O)O)NC1=O)C(C)C
notes: also called Ac-Val-Tyr-[Cys(3MeBn)-Glu-pro-Asp-Trp-Leu-Thr-Trp-Ala-Pen]-NH2

target: human carbonic anhydrase 9 (CAIX) (human, UniProt Q16790 38-459); assay: FACS competition on HT-29 cells against tracer 3BP-2776; pIC50 category A = pIC50 >8.0

pIC50, > 8 pic50:
B1
B2
B3
B4
B5
B6
B7
B8
B9
B10
B11
B12
B13
B14

Reference: US20250339569A1 (3B PHARMACEUTICALS, published 2025)
